± gives the standard deviation of the averaged measurements.
Test system: Saccharomyces cerevisiae
Assay: protein stability index of tFT-peptide fusion (C-terminal peptide) (PSI (0-1 scale)); higher = more stable (slower turnover)
Conditions: genetic background: das1 deletion; temperature: 37 C
Description: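 MPS profiling in S. cerevisiae of the tFT-X12 degron library: putative degron peptides plus stable controls, 12 aa, fused to the C-terminus of a sfGFP-mCherry timer. Cells are FACS-sorted into 8 mCherry/sfGFP bins and deep-sequenced. PSI runs from 0 (unstable) to 1 (stable). Backgrounds are wild type, das1Δ and doa10Δ at 30 °C, and wild type, das1Δ, cdc34-1 and cdc53-1 at 37 °C; 2-3 technical replicates each.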
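Also: PSI is a weighted mean of sequencing reads over stability bins, variants kept only with over 10 reads, mCherry proximal and sfGFP distal, peptide attached via GGGS linker.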

Sequence | protein stability index
CLASCRHRTYLC | 0.7223 ± 0.0018
CLFRVCLFILSI | 0.489 ± 0.0053
CLLGMKSRTILV | 0.4262 ± 0.0024
CLLSRYRVFFLG | 0.706 ± 0.026
CLWLRCIVSILP | 0.321 ± 0.01
CPVSFSFCLKVL | 0.468 ± 0.016
CRCLFVVKNWLS | 0.688 ± 0.04
CSRTRLHCFTAS | 0.74183 ± 0.00066
CSSIFSSSDCYA | 0.7219 ± 0.0061
CVFCRVAVGVDG | 0.616 ± 0.0086
CVFVRCVDCMSG | 0.594 ± 0.0081
CVLGWCSLIAWC | 0.231 ± 0.011
CWLFVWVRVISL | 0.23174 ± 3.6e-05
DCLSFVLFLFLC | 0.39151 ± 0.00036
DFCCGVILTCVC | 0.233 ± 0.0083
DGGHLVGHDLFY | 0.758 ± 0.032
DIGCLWSKTRLC | 0.763 ± 0.015
DILQITNIKQKR | 0.731 ± 0.021
DVHPLFYCIPVY | 0.0568 ± 0.014
FAIPFVLFFRVT | 0.333 ± 0.017
FASALAPLSAVA | 0.529 ± 0.001
FCASCLVCFIYL | 0.5207 ± 0.0051
FCCWCVCFGYSG | 0.582 ± 0.0089
FCFCLVLRVFLG | 0.272 ± 0.0093
FCFFSMGFVLAL | 0.45 ± 0.017
FCIIVFYIFVGI | 0.48 ± 0.077

Sequence | protein stability index
FCLMLWGAVLFL | 0.364 ± 0.047
FCVLLFFFPLII | 0.402 ± 0.0046
FEVLINIWFLSA | 0.422 ± 0.0066
FFACSLLFVLVF | 0.27 ± 0.0076
FFAIFSLLLSFT | 0.532 ± 0.012
FFALYGHILGLF | 0.7525 ± 0.0025
FFFPFLCIAVSL | 0.472 ± 0.0053
FFICCPLLVVCS | 0.0716 ± 0.018
FFILVFFSLLST | 0.441 ± 0.032
FFLFILYFGSCF | 0.481 ± 0.0073
FFLFLVCLFFFS | 0.487 ± 0.011
FFLLSVVLKYSV | 0.174 ± 0.0019
FFRFNCVFWLFL | 0.604 ± 0.034
FFRLFAPLLVVL | 0.23 ± 0.033
FFSQLFLEIVAA | 0.196 ± 0.011
FFVFSFVLFFPL | 0.456 ± 0.025
FFVLGPVVMSIH | 0.423 ± 0.02
FFVYFFLLLFWF | 0.233 ± 0.027
FGARCSLSPLVT | 0.7463 ± 0.0025
FGCLFILRCSFL | 0.5384 ± 0.00075
FGKGRSLLLVFS | 0.582 ± 0.0092
FGRAVWSRFCIV | 0.736 ± 0.0076
FGVLLLFLFFLP | 0.4673 ± 0.0036
FHRSVVRLWLRN | 0.679 ± 0.0092
FLAPPFLPPPPA | 0.758 ± 0.016
FLCLLASFVVCF | 0.384 ± 0.029

Sequence | protein stability index
FLFFWRASLFFW | 0.278 ± 0.027
FLIYMFRHCFFH | 0.676 ± 0.039
FLMCVFFLCFSN | 0.472 ± 0.015
FLSLPLFILFLS | 0.39 ± 0.02
FLSLSFLLLHFP | 0.535 ± 0.0059
FLVLFYCTFWVR | 0.3245 ± 0.0025
FLVPLSPMLLSA | 0.4942 ± 0.0011
FMCCFWFFWLGF | 0.53 ± 0.0084
FNLFWPVSAFVV | 0.5749 ± 0.0047
FNMLFVVRLLYM | 0.473 ± 0.026
FPFFLLAAPFLA | 0.6439 ± 0.0013
FPFFVFRVWFGA | 0.565 ± 0.006
FPPFALLLIIND | 0.581 ± 0.058
FPRQFVYLPLLF | 0.696 ± 0.017
FQPLELFFVCVF | 0.235 ± 0.014
FRCFVLPYFGRF | 0.7 ± 0.0079
FRDRFLRWNLVS | 0.757 ± 0.025
FRVFYSFLLCLS | 0.307 ± 0.0087
FRVILISACESV | 0.5562 ± 0.0034
FSFPAFTFIVSI | 0.475 ± 0.024
FSICGFYSLCFG | 0.628 ± 0.013
FSLLFVRFCFFL | 0.4195 ± 0.0026
FSLLLSLSLFHC | 0.549 ± 0.006
FSVLVVYTRLFQ | 0.558 ± 0.013
FTEFWFFKQMSV | 0.7757 ± 0.0069
FTRWLVYCTPLC | 0.586 ± 0.0022

Same assay, conditions: genetic background: doa10 deletion; temperature: 30 C

Sequence | protein stability index
CLASCRHRTYLC | 0.338 ± 0.015
CLFRVCLFILSI | 0.3114 ± 0.00076
CLLGMKSRTILV | 0.236 ± 0.006
CLLSRYRVFFLG | 0.134 ± 0.014
CLWLRCIVSILP | 0.16 ± 0.0074
CPVSFSFCLKVL | 0.0628 ± 0.019
CRCLFVVKNWLS | 0.147 ± 0.029
CSRTRLHCFTAS | 0.5808 ± 0.0019
CSSIFSSSDCYA | 0.68 ± 0.01
CVFCRVAVGVDG | 0.428 ± 0.028
CVFVRCVDCMSG | 0.354 ± 0.034
CVLGWCSLIAWC | 0.245 ± 0.025
CWLFVWVRVISL | 0.103 ± 0.024
DCLSFVLFLFLC | 0.149 ± 0.007
DFCCGVILTCVC | 0.156 ± 0.012
DGGHLVGHDLFY | 0.657 ± 0.016
DIGCLWSKTRLC | 0.324 ± 0.022
DILQITNIKQKR | 0.654 ± 0.014
DVHPLFYCIPVY | 0.0881 ± 0.0095
FAIPFVLFFRVT | 0.2593 ± 0.0021
FASALAPLSAVA | 0.307 ± 0.0091
FCASCLVCFIYL | 0.444 ± 0.026
FCCWCVCFGYSG | 0.372 ± 0.02
FCFCLVLRVFLG | 0.172 ± 0.011
FCFFSMGFVLAL | 0.289 ± 0.0053
FCIIVFYIFVGI | 0.323 ± 0.024

Sequence | protein stability index
FCLMLWGAVLFL | 0.226 ± 0.015
FCVLLFFFPLII | 0.376 ± 0.037
FEVLINIWFLSA | 0.185 ± 0.011
FFACSLLFVLVF | 0.1392 ± 0.0012
FFAIFSLLLSFT | 0.399 ± 0.007
FFALYGHILGLF | 0.472 ± 0.028
FFFPFLCIAVSL | 0.4007 ± 0.0018
FFICCPLLVVCS | 0.064 ± 0.016
FFILVFFSLLST | 0.244 ± 0.041
FFLFILYFGSCF | 0.362 ± 0.017
FFLFLVCLFFFS | 0.36 ± 0.049
FFLLSVVLKYSV | 0.093 ± 0.021
FFRFNCVFWLFL | 0.211 ± 0.0028
FFRLFAPLLVVL | 0.2621 ± 0.0019
FFSQLFLEIVAA | 0.14 ± 0.018
FFVFSFVLFFPL | 0.307 ± 0.006
FFVLGPVVMSIH | 0.2657 ± 0.0021
FFVYFFLLLFWF | 0.272 ± 0.028
FGARCSLSPLVT | 0.639 ± 0.035
FGCLFILRCSFL | 0.29 ± 0.0031
FGKGRSLLLVFS | 0.347 ± 0.015
FGRAVWSRFCIV | 0.13 ± 0.015
FGVLLLFLFFLP | 0.322 ± 0.0086
FHRSVVRLWLRN | 0.114 ± 0.0044
FLAPPFLPPPPA | 0.683 ± 0.02
FLCLLASFVVCF | 0.249 ± 0.0083

Sequence | protein stability index
FLFFWRASLFFW | 0.178 ± 0.018
FLIYMFRHCFFH | 0.268 ± 0.013
FLMCVFFLCFSN | 0.208 ± 0.0021
FLSLPLFILFLS | 0.1217 ± 0.00068
FLSLSFLLLHFP | 0.543 ± 0.017
FLVLFYCTFWVR | 0.197 ± 0.006
FLVPLSPMLLSA | 0.323 ± 0.012
FMCCFWFFWLGF | 0.451 ± 0.006
FNLFWPVSAFVV | 0.211 ± 0.0037
FNMLFVVRLLYM | 0.259 ± 0.027
FPFFLLAAPFLA | 0.16 ± 0.0077
FPFFVFRVWFGA | 0.32953 ± 0.00015
FPPFALLLIIND | 0.415 ± 0.0098
FPRQFVYLPLLF | 0.372 ± 0.018
FQPLELFFVCVF | 0.163 ± 0.014
FRCFVLPYFGRF | 0.372 ± 0.037
FRDRFLRWNLVS | 0.129 ± 0.026
FRVFYSFLLCLS | 0.178 ± 0.0048
FRVILISACESV | 0.384 ± 0.032
FSFPAFTFIVSI | 0.502 ± 0.031
FSICGFYSLCFG | 0.4968 ± 0.0046
FSLLFVRFCFFL | 0.227 ± 0.0074
FSLLLSLSLFHC | 0.183 ± 0.0059
FSVLVVYTRLFQ | 0.306 ± 0.011
FTEFWFFKQMSV | 0.11 ± 0.01
FTRWLVYCTPLC | 0.437 ± 0.029

— the supplement of paper PMC10724198
